Here are results for four molecules from patent US10975357B2, “Methods and compositions related to differentiated lung cells” (TRUSTEES OF BOSTON UNIVERSITY, priority 2017, dated 2021).

The test system of experiment [1] is NKX2-1+ lung epithelial progenitor cells. Briefly: SFTPCtdTomato reporter induction in day 15 NKX2-1+ progenitor outgrowth in 3D culture (flow cytometry). In kind it is cell-based, human. As to conditions: for further SFTPC induction efficiency with addition of the factor: factor added to differentiation media, FIG. 9B. The protocol: Purification of NKX2-1+ Lung Progenitors by Cell Sorting. On day 15 of differentiation, cells were incubated at 37° C. in 0.05% trypsin-EDTA (Invitrogen) for 7-15 minutes, until they reached single cell suspension. Cells were then washed in media containing 10% fetal bovine serum (FBS, ThermoFisher), centrifuged at 300g×5 minutes, and resuspended in sort buffer containing Hank's Balanced Salt Solution (ThermoFisher), 2% FBS, 10 μM Y-27632, and 10 uM calcein blue AM (Life Technologies) for dead cell exclusion. Cells not containing the NKX2-1GFP reporter were subsequently stained with CD47-PerCPCy5.5 and CD26-PE antibodies (mouse monoclonal; Biolegend 1:200; 1×10^6 cells in 100 ul) for 30 minutes at 4° C., washed with PBS, and resuspended in sort buffer. Cells were passed through a 40 um strainer prior to sorting (Falcon). Various live cell populations indicated in the text (i.e. GFP+, GFP−, CD47hi/CD26−,CD47lo) were sorted on a high-speed cell sorter (MoFlo Legacy). Directed Differentiation of NKX2-1+ Lung Progenitor Outgrowth into iAEC2s Day 15 cells, either sorted (as described above) or unsorted (dissociated as described above), were resuspended in undiluted growth factor-reduced matrigel (Corning) at a dilution of 50-100 cells/ul, with droplets ranging in size from 20 ul in 96 well plates to 1 ml in 10 cm tissue culture-treated dishes (Corning). Cells in matrigel suspension were incubated at 37° C. for 20-30 minutes, then warm media was added to the plates.
(§1) Where indicated in the text, outgrowth and distal/alveolar differentiation of cells after day 15 was performed in “CK+DCI” medium, consisting of cSFDM base, with 3 μM CHIR99021, 10 ng/mL rhKGF, and 50 nM dexamethasone (Sigma), 0.1 mM 8-Bromoadenosine 3′,5′-cyclic monophosphate sodium salt (Sigma) and 0.1 mM 3-Isobutyl-1-methylxanthine (IBMX) (Sigma) (DCI). Immediately after replating cells on Day 15 10 μM Y-27632 was added to the medium for 24 hours. Additional growth factors or cytokines were added or withdrawn as indicated in the text, including FGF10, TGFb, EGF, OSM (20 ng/ml), TNFa (10 ng/ml), and IL-1b (10 ng/ml) with other concentrations listed in figure legends (FIGS. 9A, 9B).
Alveolosphere Long Term Culture, Dissociation, and Differentiation. […] These spheres were analyzed as follows: Z-stack images of live alveolospheres were taken and processed on a Keyence (Osaka, Japan) BZ-X700 fluorescence microscope. […] To generate single cell suspensions, cell pellets were incubated in 0.05% trypsin and continued through the trypsin-based dissociation protocol described above, after which they could be passaged into fresh matrigel, analyzed by flow cytometry, or sorted as described above. […]

A further experiment has as its system JAK/STAT3 pathway. As to the kind of experiment: Cytokine stimulation of PSC-derived alveolospheres, JAK/STAT3 pathway (Western blot phospho-STAT3, SOCS3 RT-qPCR). As to conditions: OSM 20 ng/ml. In kind it is cell-based, human. On the procedure:
as §1
Reverse Transcriptase Quantitative Real Time Polymerase Chain Reaction (RT-qPCR). RT-qPCR was performed as previously described (Hawkins et al. 2017,). Briefly, RNA was isolated according to manufacturer's instructions using the Qiagen miRNeasy mini kit (Qiagen, Venlo, Netherlands). cDNA was generated by reverse transcription of up to 150 ng RNA from each sample using the Applied Biosystems High-Capacity cDNA Reverse Transcription Kit. […] Relative gene expression was calculated based on the average cycle (Ct) value of the technical triplicates, normalized to 18S control, and reported as fold change (2(−ΔΔCT)), with a fold change of 1 being assigned to undifferentiated (day 0) iPSCs or ESCs. […]
In general terms: In western blotting, separated proteins are transferred to a membrane and probed.

B1: KGF: Recombinant human KGF, agonist of FGF signaling (protein, UniProt P21781 32-194, looked up)
Fibroblast growth factor 7: CNDMTPEQMATNVNCSSPERHTRSYDYMEGGDIRVRRLFCRTQWYLRIDKRGKVKGTQEMKNNYNIMEIRTVAVGIVAIKGVESEFYLAMNKEGKLYAKKECNEDCNFKELILENHYNTYASAKWTHNGGEMFVALNQKGIPVRGKKTKKEQKTAHFLPMAIT
Turning to B1, the “need for initial induction of the tdTomato reporter” value in experiment [1] (component removed from media, FIG. 9A, 9B) was “dispensable”. For the same molecule, the “promoting outgrowth of tdTomato+ cells by day 21, combined with CHIR, compared to FGF10+CHIR” value in experiment [1] (day 21, FIG. 9B) is reported as “more consistent”.

B2: OSM: Recombinant human OSM, cytokine activating the JAK/STAT3 pathway (protein, UniProt P13725 26-221, looked up)
Oncostatin-M: AAIGSCSKEYRVLLGQLQKQTDLMQDTSRLLDPYIRIQGLDVPKLREHCRERPGAFPSEETLRGLGRRGFLQTLNATLGCVLHRLADLEQRLPKAQDLERSGLNIEDLEKLQMARPNILGLRNNIYCMAQLLDNSDTAEPTKAGRGASQPPTPTPASDAFQRKLEGCRFLHGYHRFMHSVGRVFSKWGESPNRSRR
Consider B2, for which the “STAT3 signaling (phosphorylated STAT3 protein, SOCS3 mRNA)” value in the experiment with JAK/STAT3 pathway is “significant and rapid activation of STAT3 signaling”.

B3: BMP4: recombinant human BMP4 (protein, UniProt P12644 293-408, looked up)
Bone morphogenetic protein 4: SPKHHSQRARKKNKNCRRHSLYVDFSDVGWNDWIVAPPGYQAFYCHGDCPFPLADHLNSTNHAIVQTLVNSVNSSIPKACCVPTELSAISMLYLDEYDKVVLKNYQEMVVEGCGCR
Turning to B3, in experiment [1], the “further SFTPC induction efficiency with addition of the factor” value is on record as “No consistent further SFTPC induction efficiency”.

B4: FGF10: Recombinant human FGF10 (protein, UniProt O15520 38-208, looked up)
Fibroblast growth factor 10: QALGQDMVSPEATNSSSSSFSSPSSAGRHVRSYNHLQGDVRWRKLFSFTKYFLKIEKNGKVSGTKKENCPYSILEITSVEIGVVAVKAINSNYYLAMNKKGKLYGSKEFNNDCKLKERIEENGYNTYASFNWQHNGRQMYVALNGKGAPRRGQKTRRKNTSAHFLPMVVHS
For the molecule B4, the “further SFTPC induction efficiency with addition of the factor” value in experiment [1] is given as “No consistent further SFTPC induction efficiency”.
